What is called stoichiometry N is a count of units in the complex or per binding partner.

The target in assay [1] is Acinetobacter baumannii ApeQ (β-ketoacyl-ACP reductase of the aryl polyene biosynthesis gene cluster) (Acinetobacter baumannii (clinical CRAB strain C1)). The experiment in a line: crystal structure; apo AbApeQ, space group P3_(1)2, four molecules in the asymmetric unit.
Assay [2] shares this target. The experiment in a line: crystal structure; AbApeQ co-crystallised with NADPH (1:3 molar ratio), space group P2_(1), four molecules in the asymmetric unit.
The target in assay [3] is Acinetobacter baumannii FabG (β-ketoacyl-ACP reductase of the fatty acid synthase gene cluster) (Acinetobacter baumannii (clinical CRAB strain C1)) (UniProt V5VHN7). The experiment in a line: crystal structure; apo AbFabG, 1.79 Å, four molecules in the asymmetric unit.

Regarding “Acinetobacter baumannii ApeQ (β-ketoacyl-ACP reductase of the aryl polyene biosynthesis gene cluster) (enzyme)”, the stoichiometry N in assay [1] and in assay [2] was 4 each time. Take “Acinetobacter baumannii FabG (β-ketoacyl-ACP reductase of the fatty acid synthase gene cluster) (from UniProt V5VHN7 1-244) (enzyme)”: the stoichiometry N in assay [3] came out at 4.

Source of the values: PMC8041823, “Structural comparison of Acinetobacter baumannii β-ketoacyl-acyl carrier protein reductases in fatty acid and aryl polyene biosynthesis” (Scientific Reports, 2021).
